± gives the standard deviation of the averaged measurements.
What follows are sequences tested on ATP (assay: switch fluorescence ratio, 500 uM ATP over buffer (Cy3 cluster intensity, sum of 5 cycles each) (fold (ratio)); higher = stronger signal-on switching upon ATP binding; sequences stand for … in TCGTCGGCAGCGTCAGATGTGTATAAGAGACAGTTTTTTTTTTTTTTTTTTTTTTTTT…TC). Conditions: aptamer strand: ATP DNA aptamer (quencher-CACCTGGGGGAGTATTGCGGAGGAAGG + anchor), 100 nM annealed; ATP concentration: 500 uM.
Outline: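 The fluorescence ratio divides summed target-cycle Cy3 intensity by summed buffer-cycle Cy3 intensity for each cluster and is averaged per switch-domain sequence. Cy3-labelled switching-strand clusters on a modified Illumina MiSeq flow-cell were annealed to 100 nM quencher-labelled ATP aptamer, then imaged in selection buffer and again after 15 min with 500 uM ATP at 22 °C. Five such cycles were run, with NaOH stripping and re-annealing between them, and clusters outside 100-1000 RFU were excluded.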
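Further: ATP exposure 15 min at 22 °C before imaging.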

Sequence	switch fluorescence ratio
CAACTTTAGT	1.031 ± 0.0035
GAGTTTGTTG	0.985 ± 0.014
TCTCAAGGCG	1.03 ± 0.0089
ACCTAGCTCC	1.71 ± 0.056
GATTTTGGGT	1.02 ± 0.038
TGGCCGGTGT	0.991 ± 0.032
CAGTAGATGG	0.985 ± 0.024
GCATTGGGTG	1.11 ± 0.054
TTGGGTAGAA	0.986 ± 0.045
CGTTTACCTT	1.0086 ± 0.001
TAAGGGGGCC	1.08 ± 0.16
AGGGGGGGA	0.9821 ± 0.0079
GCCTTGTTCA	0.993 ± 0.022
TCTTTTTCCC	1.01 ± 0.022
AACAGGCGGG	0.993 ± 0.027
GGGTACAGGT	1.18 ± 0.2
AATTGGGATG	0.975 ± 0.034
TTTATTTCTT	0.98163 ± 0.0001
TTAATAGTCA	1 ± 0.014
AAAAGCCGGG	0.979 ± 0.16
GCTTATCTTT	0.978 ± 0.051
ATTCGTTATG	1 ± 0.013
TAAAAAGCGA	0.987 ± 0.012
GTTTTGTGGT	0.954 ± 0.021
AGCTGTCGCT	1.01 ± 0.076

Sequence	switch fluorescence ratio
CATGTATGGG	0.9833 ± 0.0095
TGGACCAAAA	1.03 ± 0.013
GCAGAAAAAA	0.988 ± 0.028
TATTTGAGCA	0.995 ± 0.026
GGGCAAGAGC	1.04 ± 0.063
TATCGAAGTG	0.993 ± 0.019
TGGGGGGGGT	1.02 ± 0.18
TTCCGAAAAT	1.01 ± 0.046
TTAAGCACAT	1.202 ± 0.011
GATTGTTAGA	0.9891 ± 0.0081
AAAATGGGTT	1 ± 0.059
AGTAGGGCGG	1 ± 0.033
TCGGCATGAT	0.998 ± 0.011
TACATGTCGG	1.01 ± 0.0022
ACTCGGGGGA	1.018 ± 0.0035
GACGTAAATA	1.75 ± 0.18
TTTTGTCAAT	1.1 ± 0.13
TGGAGGGGTT	1.02 ± 0.037
AGGTTAATGT	0.996 ± 0.032
TTATAATAGT	1 ± 0.013
TATTTAGGAA	0.9498 ± 0.0078
GGTTTGCTGA	1.01 ± 0.043
TTTTCAGCTG	1.03 ± 0.016
GGAGGAGGGC	0.909 ± 0.043
AAAGTGGGCC	0.9593 ± 0.0049

Sequence	switch fluorescence ratio
TTTAGGGA	0.973 ± 0.033
GTACCTGTCT	0.99 ± 0.017
AGAGCAATTG	1.19 ± 0.014
TTGGAGGGTG	1.005 ± 0.01
TTTGGGGCT	0.957 ± 0.039
AATTGGTTTT	0.982 ± 0.034
GCTCCGTGGG	1.93 ± 0.1
CGTTGGTGAG	0.9373 ± 0.0065
GATGTTTAAT	0.991 ± 0.029
TTTAAGACAC	1.03 ± 0.022
TATTGATAAA	0.991 ± 0.058
TTTTAGATTG	0.987 ± 0.028
CTGAGTGGGA	1.02 ± 0.013
TTTGGGCCCG	0.9936 ± 0.0014
ATAGCTAGTG	0.973 ± 0.013
GAGTGGGTCG	0.983 ± 0.024
TTTGGTACTT	0.986 ± 0.039
GCTAGTGCTT	0.956 ± 0.011
AAGAAGGAAC	1 ± 0.02
TTGGATGGAA	0.984 ± 0.023
GAATGTTCTT	1.0298 ± 6.1e-05
AGGGGGCCGC	0.976 ± 0.087
ATTTCATGTG	0.9853 ± 0.0035
GCTTAGAGGA	1 ± 0.03
TTAGTTTATG	0.981 ± 0.017

Sequence	switch fluorescence ratio
GCGGGGCCAC	1.2 ± 0.26
TAGGCTGTTA	0.995 ± 0.036
AGAGTAGGGA	0.989 ± 0.02
CCGTGAATAT	2.21 ± 0.083
GAAAGTAAGC	0.993 ± 0.012
GCTTCAAGGC	1.03 ± 0.045
TACTCTAAAA	1.08 ± 0.022
AGTATTTGTG	0.97 ± 0.035
TGGTTTTTCC	1.11 ± 0.12
CGGCAAGTGC	2.19 ± 1
GATTTGAGCG	0.9852 ± 0.0046
TTTGGGGGGG	1 ± 0.051
GGTTAGGGG	0.99 ± 0.028
AAAGGGCCTT	1.003 ± 0.0024
TGTAAATGTG	1 ± 0.028
CAGAGGAGGG	0.9747 ± 0.008
ATTTTAAGGC	1.002 ± 0.0054
GGTTTATAAA	0.971 ± 0.051
TGGTCCAGTG	1.03 ± 0.089
GAAGTAAGGA	1.01 ± 0.074
AGTATTGGAG	1.004 ± 0.0023
GAATGTCCGT	0.992 ± 0.015
CCACTGATCG	1.02 ± 0.022
ATTTGGGGCT	0.981 ± 0.017
CTCGGACAAG	0.9964 ± 0.0058

From the supplement of paper PMC10126150
